Tests used:
[1] = target: T1, IL-1 (Homo sapiens, UniProt P01584); test: Serum Amyloid IL-1 assay; assay type: cell-based
[2] = target: IL-1β (Homo sapiens, UniProt P01584); test: two independent in vitro bioassays of IL-1β biological activity; assay type: cell-based; settings: effect dependent on the peptide sequence
Excerpt: The programme identified the antisense region LITVLNI in the interleukin 1 type 1 receptor (IL-1R).
The effect is dependent on the peptide sequence.

[3] = target: T1, IL-1; test: direct binding to IL-1 by biosensing techniques

T1 sequence (P01584 117-269): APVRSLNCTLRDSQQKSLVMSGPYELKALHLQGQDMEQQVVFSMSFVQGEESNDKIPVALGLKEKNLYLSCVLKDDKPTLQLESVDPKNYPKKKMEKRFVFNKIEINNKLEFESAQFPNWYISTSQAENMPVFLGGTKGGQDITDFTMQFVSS
Sequence of IL-1β (P01584 117-269): as above

LITVLNI [antisense region in the interleukin 1 type 1 receptor (IL-1R) identified by the programme]
inhibition of IL-1 activity (same effect) in Serum Amyloid IL-1 assay [1]: same effect is also seen | inhibition of the biological activity of IL-1β [2]: shown to inhibit the biological activity of IL-1β | direct binding to IL-1 [3]: shown to bind directly to IL-1

Source: patent US20030078374A1, “Complementary peptide ligands generated from the human genome” (priority 1999, published 2003)
